From patent publication US7202329B2, “Tsg101-GAGp6 interaction and use thereof” (priority 2001, dated 2007)

Key:
ROCK1 = ROCK1 (Homo sapiens, UniProt Q13464); conditions: cited from earlier work
Full length Tsg101 = target: T1, Full length Tsg101 (Homo sapiens, UniProt Q99816); experiment: Two-hybrid liquid culture β-galactosidase assay; format: cell-based; conditions: p6 point mutants
T1 construct: expressed in transfected cells; host or cells: Saccharomyces cerevisiae strain Y189
T1 sequence (Q99816 1-390): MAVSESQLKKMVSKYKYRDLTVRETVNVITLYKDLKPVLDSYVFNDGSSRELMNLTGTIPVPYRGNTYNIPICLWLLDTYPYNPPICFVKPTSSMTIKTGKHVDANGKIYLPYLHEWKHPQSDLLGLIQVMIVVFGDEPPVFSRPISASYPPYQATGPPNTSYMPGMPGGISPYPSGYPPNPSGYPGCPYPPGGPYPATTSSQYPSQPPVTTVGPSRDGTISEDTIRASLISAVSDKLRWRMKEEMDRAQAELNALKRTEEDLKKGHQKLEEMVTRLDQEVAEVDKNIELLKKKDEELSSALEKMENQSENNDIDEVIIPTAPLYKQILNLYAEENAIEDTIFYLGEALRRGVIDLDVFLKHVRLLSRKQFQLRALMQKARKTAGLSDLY
Protocol: The interactions between Tsg101 and wild-type GAGp6 (WT) or the GAGp6 PTAP mutants were further quantitated by performing liquid culture β-galactosidase assays. Cultures were grown overnight in synthetic media (−Leu, −Trp, +glucose) in 96 well plates, normalized for optical density, and lysed by addition of 6× lysis/substrate solution in 6× Z-buffer (60 mM KCl, 6 mM MgSO4, 360 mM Na2HPO4, 240 mM NaH2PO4, 6 mg/ml CPRG, 0.12U/ml lyticase, 0.075% NP-40). Cultures were incubated for 2 hr at 37° C., clarified by centrifugation, and the optical absorbance of each supernatant was measured (575 nm). Full length Tsg101 bound wild-type p6 in the two-hybrid liquid culture assay, resulting in high levels of β-galactosidase activity (>300-fold over background). […] Each of these point mutations also arrests HIV-1 budding at a late stage (Huang et al. 1995).

Tsg101 = target: T2, Tsg101 (Homo sapiens, UniProt Q99816); experiment: Yeast two-hybrid filter lift assay for β-Gal activity (Tsg101 / GAGp6 interaction); format: cell-based; parameters: key to Interactions Between Tsg101 and GAGp6 (β-Gal activity, filter lift): +: Positive β-Gal activity indicates that the GAGp6 wild type or mutant protein interacts with Tsg101; conditions: for ability to bind Tsg101 protein (in words): yeast two-hybrid, GAGp6 point mutants
T2 construct: expressed in transfected cells; host or cells: Saccharomyces cerevisiae strain Y189
T2 sequence (Q99816 1-390): T1 sequence (Q99816 1-390)
Source text: Yeast two-hybrid assays were utilized to determine the effect of amino acid substitution mutations in the PTAP motif of HIV GAGp6 on the interaction between Tsg101 and GAGp6. To prepare a yeast two-hybrid activation domain-Tsg101 construct, a DNA fragment encompassing the full-length coding sequence for Tsg101 according to GenBank Accession No. U82130 was obtained by PCR from a human fetal brain cDNA library and cloned into the EcoRI/Pst1 sites of the activation domain parent plasmid GADpN2 (LEU2, CEN4, ARS1, ADH1p-SV40NLS-GAL4 (768–881)-MCS (multiple cloning site)-PGK1t, AmpR, ColE1_ori).
To prepare the yeast two-hybrid DNA binding domain-HIV1 GAGp6 construct, a DNA fragment corresponding to the HIV1 GAGp6 peptide derived from the HIV1.NL43 strain GAG protein was obtained by PCR from the NL43 containing plasmid R9≢apa and was cloned into the EcoRI/Sal1 sites of the binding domain parent plasmid pGBT.Q.
The following amino acid substitution mutations were introduced by PCR into the HIV1 GAGp6 sequence in the yeast two-hybrid binding domain-HIV1 GAGp6 construct described above. The mutations were verified by DNA sequence analysis.
To test the effect of the mutations, yeast cells of the strain Y189 purchased from Clontech (ura3-52 his3*200 ade2-101 trp1-901 leu2-3,112 met gal4 gal80 URA3::GAL1p-lacZ) were co-transformed with the activation domain-Tsg101 construct and one of the binding domain-mutant GAGp6 constructs or the binding domain-wild type GAGp6 construct. Filter lift assays for β-Gal activity were conducted by lifting the transformed yeast colonies with filters, lysing the yeast cells by freezing and thawing, and contacting the lysed cells with X-Gal. […] All binding domain constructs were also tested for self-activation of β-Gal activity.

[1] = target: T3, interaction between GST-p6 and myc-Tsg101(1-207) (Homo sapiens, UniProt Q99816); experiment: In vitro binding assay: competition of p6(1-14) with GST-p6 for myc-Tsg101(1-207)
T3 construct: Drosophila S2 cell lysate myc-tagged Tsg101 (residues 1–207); made in house; host or cells: Drosophila S2 cells (used as lysate)
T3 sequence (Q99816 1-207): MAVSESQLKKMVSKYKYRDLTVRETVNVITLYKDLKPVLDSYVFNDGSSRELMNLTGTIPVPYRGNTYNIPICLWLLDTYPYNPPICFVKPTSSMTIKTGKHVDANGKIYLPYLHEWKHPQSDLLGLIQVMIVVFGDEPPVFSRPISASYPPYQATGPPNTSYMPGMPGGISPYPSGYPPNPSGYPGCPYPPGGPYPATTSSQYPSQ
Protocol: A fusion protein with a GST tag fused to the HIV-1 GAGp6 domain was recombinantly expressed and purified by chromatography. In addition, a GAGp6 peptide containing the first 14 amino acid residues (“p6(1–14)”) was synthesized chemically by standard peptide synthesis methods. The peptide was purified by conventional protein purification techniques, e.g., by chromatography.
Nunc/Nalgene Maxisorp plates were incubated overnight at 4° C. or for 1–2 hrs at room temperature in 100 μl of a protein coupling solution containing purified GST-p6 and 50 mM Carbonate, pH=9.6. This allowed the attachment of the GST-p6 fusion protein to the plates. Liquids in the plates were then emptied and wells filled with 400 μl/well of a blocking buffer (SuperBlock; Pierce-Endogen, Rockford, Ill.). […]
Plates were then washed 4×100 μl with 1× PBST solution (Invitrogen; Carlsbad, Calif.). […] Plates were then read on a Packard Fusion instrument at an excitation wavelength of 325 nm and an emission wavelength of 420 nm. […]
Different concentrations of the p6(1–14) peptide were tested, and the relative intensities of the fluorescence signals obtained at different concentrations were plotted against the peptide concentrations. […]

Chain of ROCK1 (Q13464 whole entry): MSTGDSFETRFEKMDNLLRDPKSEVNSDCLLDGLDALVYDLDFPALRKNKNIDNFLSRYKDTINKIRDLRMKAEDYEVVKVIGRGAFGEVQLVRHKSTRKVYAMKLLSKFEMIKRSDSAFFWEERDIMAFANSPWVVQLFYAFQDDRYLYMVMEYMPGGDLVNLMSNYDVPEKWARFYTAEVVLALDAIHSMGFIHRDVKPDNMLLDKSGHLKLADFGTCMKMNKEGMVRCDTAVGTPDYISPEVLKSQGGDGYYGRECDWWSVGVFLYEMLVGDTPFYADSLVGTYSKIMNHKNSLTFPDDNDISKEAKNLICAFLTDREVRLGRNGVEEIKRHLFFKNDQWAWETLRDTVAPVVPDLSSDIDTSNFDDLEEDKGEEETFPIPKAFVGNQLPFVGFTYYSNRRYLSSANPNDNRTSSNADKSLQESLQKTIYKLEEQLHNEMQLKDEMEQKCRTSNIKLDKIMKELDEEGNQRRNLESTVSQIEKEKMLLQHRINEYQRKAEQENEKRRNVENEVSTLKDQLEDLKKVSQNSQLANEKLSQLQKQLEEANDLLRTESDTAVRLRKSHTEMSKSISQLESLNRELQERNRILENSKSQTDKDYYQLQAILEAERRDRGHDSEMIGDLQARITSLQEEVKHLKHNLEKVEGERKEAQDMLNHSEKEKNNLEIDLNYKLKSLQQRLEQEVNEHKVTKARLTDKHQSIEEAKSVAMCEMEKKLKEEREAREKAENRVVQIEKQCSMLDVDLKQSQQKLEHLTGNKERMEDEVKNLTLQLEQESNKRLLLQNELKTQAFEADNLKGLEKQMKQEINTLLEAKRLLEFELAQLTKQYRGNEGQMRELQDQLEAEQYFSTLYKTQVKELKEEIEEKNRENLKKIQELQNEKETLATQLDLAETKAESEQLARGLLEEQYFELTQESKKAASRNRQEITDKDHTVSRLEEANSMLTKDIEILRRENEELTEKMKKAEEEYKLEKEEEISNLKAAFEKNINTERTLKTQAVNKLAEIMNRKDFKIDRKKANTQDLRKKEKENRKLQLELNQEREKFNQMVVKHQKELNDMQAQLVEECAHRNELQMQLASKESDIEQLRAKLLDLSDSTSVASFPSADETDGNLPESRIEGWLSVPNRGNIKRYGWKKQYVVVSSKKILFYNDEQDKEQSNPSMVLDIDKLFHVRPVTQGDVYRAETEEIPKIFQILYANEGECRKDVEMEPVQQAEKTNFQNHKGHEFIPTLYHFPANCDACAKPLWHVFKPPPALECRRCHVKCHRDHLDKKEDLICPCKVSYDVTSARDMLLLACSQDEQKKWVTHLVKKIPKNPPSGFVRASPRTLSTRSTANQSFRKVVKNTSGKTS

In the case of C[C@@H](N)[C@H]1CC[C@H](C(=O)Nc2ccncc2)CC1 [Y-27632, (+)-(R)-trans-4-(1-aminoethyl)-N-(4-pyridyl) cyclohexanecarboxamide], the “selectivity for ROCK1” value (ROCK1) is listed as “highly selective for ROCK1”.
With “P6/A9R (LQSRPEPTRPPEESFRFGEETTTPSQKQEPIDKELYPLASLRSLFGSDPSSQ; left off: large carriers; small tags and cut ends)” the “β-galactosidase activity (in words)” value (Full length Tsg101) was “reduced β-galactosidase activity to background levels” and the “ability to bind Tsg101 protein (in words)” value (from here on “ability”) (Tsg101) was “abolishes the GAGp6 binding affinity to Tsg101”.
With “P6/E6G (LQSRPGPTAPPEESFRFGEETTTPSQKQEPIDKELYPLASLRSLFGSDPSSQ; left off: large carriers; small tags and cut ends)” the “Interactions Between Tsg101 and GAGp6 (β-Gal activity, filter lift)” value (Tsg101; yeast strain Y189 co-transformed with activation domain-Tsg101 construct and binding domain-GAGp6 construct) was “+”, the “ability” value (Tsg101) was “did not result in the elimination of the Tsg101-GAGp6 interaction” and the “ability” value (Tsg101; listed as E6G GAGp6 mutant) was “capable of binding Tsg101 protein”.
For “P6/P7L (LQSRPELTAPPEESFRFGEETTTPSQKQEPIDKELYPLASLRSLFGSDPSSQ; left off: large carriers; small tags and cut ends)”, the “β-galactosidase activity (in words)” value (Full length Tsg101) was “reduced β-galactosidase activity to background levels” and the “ability” value (Tsg101) was “abolishes the GAGp6 binding affinity to Tsg101”.
With “P6/P10L (LQSRPEPTALPEESFRFGEETTTPSQKQEPIDKELYPLASLRSLFGSDPSSQ; left off: large carriers; small tags and cut ends)” the “β-galactosidase activity (in words)” value (Full length Tsg101) was “reduced β-galactosidase activity to background levels” and the “ability” value (Tsg101) was “abolishes the GAGp6 binding affinity to Tsg101”.
In the case of “p6(1-14): chemically synthesized GAGp6 peptide containing the first 14 amino acid residues, includes the PTAP late domain motif (LQSRPEPTAPPEES)”, the “inhibition of protein-protein interaction between GST-p6 and myc-Tsg101(1-207)” value ([1]; competitive inhibition curve, FIG. 2) is reported as “capable of inhibiting” and the “binding to the N-terminal portion of Tsg101 (amino acid residues 1–207)” value ([1]; includes the Tsg101 UEV domain) is reported as “sufficient in binding”.
